# Test results as given in patent US6709838.
# Biological target: human Ptch (SEQ ID NO:4), overexpressed on transfected human 293 embryonic kidney cells (human) (UniProt Q13635)
# Assay: Scatchard analysis of 125I-Shh displacement curves, 293 cells expressing Ptch
row,Kd,Substance
1,2.6 nM,Dhh (SEQ ID NO:13) (from UniProt Q61488 23-198) (ligand)
2,1 nM,Ihh (SEQ ID NO:29) (from UniProt P97812 28-202) (ligand)
3,1 nM,"Shh (SEQ ID NO:14), 19kD amino terminal fragment of murine Shh (from UniProt Q62226 25-198) (ligand)"
